# Test results reported in paper PMC6487875 (Biochemistry, 2018).
# Substitutions are numbered along the chain they refer to. In names and notes the source's numbering stands. Several values for one entry are separate records, joined by “and”; a condition that tells them apart may be missing. Identical values can stand only once.
# B1: wild type glutamate oxaloacetate transaminase 1 (WT-GOT1) (enzyme, human, UniProt P17174-1 1-413, looked up)
# chain: MAPPSVFAEVPQAQPVLVFKLTADFREDPDPRKVNLGVGAYRTDDCHPWVLPVVKKVEQKIANDNSLNHEYLPILGLAEFRSCASRLALGDDSPALKEKRVGGVQSLGGTGALRIGADFLARWYNGTNNKNTPVYVSSPTWENHNAVFSAAGFKDIRSYRYWDAEKRGLDLQGFLNDLENAPEFSIVVLHACAHNPTGIDPTPEQWKQIASVMKHRFLFPFFDSAYQGFASGNLERDAWAIRYFVSEGFEFFCAQSFSKNFGLYNERVGNLTVVGKEPESILQVLSQMEKIVRITWSNPPAQGARIVASTLSNPELFEEWTGNVKTMADRILTMRSELRARLEALKTPGTWNHITDQIGMFSFTGLNPKQVEYLVNEKHIYLLPSGRINVSGLTTKNLDYVATSIHEAVTKIQ
# B2: GOT1 S256A mutant (enzyme, human, UniProt P17174-1 1-413, looked up)
# chain: B1 chain with S256A
# B3: GOT1 T110A mutant (enzyme, human, UniProt P17174-1 1-413, looked up)
# chain: B1 chain with T110A
# Target: the molecule itself
# Assay: SEC
row,Protein,stoichiometry N
1,B1,2 and 4
2,B2,2
3,B3,2
